Reference: patent publication US5906819

Key:
[1] = target: S6 peptide
[2] = target: intact myosin (chicken)
[3] = target: T1, myosin light chain (chicken) (UniProt P02612)
T1 sequence: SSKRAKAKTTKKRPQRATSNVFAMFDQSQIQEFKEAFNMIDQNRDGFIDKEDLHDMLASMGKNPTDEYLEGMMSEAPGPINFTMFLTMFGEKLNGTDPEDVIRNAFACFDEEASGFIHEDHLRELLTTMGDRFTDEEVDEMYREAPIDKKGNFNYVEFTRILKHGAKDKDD

B1: GST-Rho-kinase (enzyme)
chain: PTGKMPGAPEAVSGDGAGASRQRKLEALIRDPRSPINVESLLDGLNPLVLDLDFPALRKNKNIDNFLNRYEKIVKKIRGLQMKAEDYDVVKVIGRGAFGEVQLVRHKASQKVYAMKLLSKFEMIKRSDSAFFWEERDIMAFANSPWVVQLFCAFQDDKYLYMVMEYMPGGDLVNLMSNYDVPEKWAKFYTAEVVLALDAIHSMGLIHRDVKPDNMLLDKHGHLKLADFGTCMKMDETGMVHCDTAVGTPDYISPEVLKSQGGDGYYGRECDWWSVGVFLFEMLVGDTPFYADSLVGTYSKIMDHKNSLCFPEDAEISKHAKNLICAFLTDREVRLGRNGVEEIKQHPFFKNDQWNWDNIRETAAPVVPELSSDIDSSNFDDIEDDKGDVETFPIPKAFVGNQLPFIGFTYYRENLLLSDSPSCKENDSIQSRKNEESQEIQKKLYTLEEHLSTEIQAKEELEQKCKSVNTRLEKVAKELEEEITLRKNVESTLRQLEREKALLQHKNAEYQRKADHEADKKRNLENDVNSLKDQLEDLKKRNQNSQIS
How did the specific activity with S6 peptide as a substrate (mol per minute per 1 mol GST-Rho-kinase) [1] turn out when B1 was run?
Its specific activity with S6 peptide as a substrate (mol per minute per 1 mol GST-Rho-kinase) is 41.

And the phosphorylation of intact myosin (mol phosphorylation per 1 mol myosin) [2]?
The phosphorylation of intact myosin (mol phosphorylation per 1 mol myosin) was 1.

And the apparent Km for myosin light chain [3]?
The apparent Km for myosin light chain was 0.91 µM.
